Experimental data: US20250257128A1

Legend:
human CD47 (human) [1] = molecular target: human CD47 (human) (UniProt Q08722); assay: flow cytometry on human red blood cells, antibody at 15 µg/mL (negative control)
human CD47 (human) [2] = molecular target: human CD47 (human) (UniProt Q08722); assay: flow cytometry on human red blood cells, antibody at 150 µg/mL (negative control)

human CD47 (human), sequence (Q08722 19-323): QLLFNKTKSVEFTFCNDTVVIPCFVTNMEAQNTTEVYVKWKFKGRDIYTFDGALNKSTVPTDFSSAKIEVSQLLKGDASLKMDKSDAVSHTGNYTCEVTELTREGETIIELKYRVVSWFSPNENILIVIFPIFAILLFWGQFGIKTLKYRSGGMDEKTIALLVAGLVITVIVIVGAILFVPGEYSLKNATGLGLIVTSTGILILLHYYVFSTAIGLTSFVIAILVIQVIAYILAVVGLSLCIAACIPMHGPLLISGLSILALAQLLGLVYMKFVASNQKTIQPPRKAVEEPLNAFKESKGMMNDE

MFI (human CD47 (human) [1]): 303 MFI | MFI (human CD47 (human) [2]): 901 MFI
Substance: Human IgG1 isotype negative control (antibody)
